Earlier results on one substance are cited in article PMC8886532.

For the data set, the target named is kinetochore receptor (KNL1) (Homo sapiens) (UniProt Q8NG31).
UniProt Q8NG31, sequence (Q8NG31 whole entry): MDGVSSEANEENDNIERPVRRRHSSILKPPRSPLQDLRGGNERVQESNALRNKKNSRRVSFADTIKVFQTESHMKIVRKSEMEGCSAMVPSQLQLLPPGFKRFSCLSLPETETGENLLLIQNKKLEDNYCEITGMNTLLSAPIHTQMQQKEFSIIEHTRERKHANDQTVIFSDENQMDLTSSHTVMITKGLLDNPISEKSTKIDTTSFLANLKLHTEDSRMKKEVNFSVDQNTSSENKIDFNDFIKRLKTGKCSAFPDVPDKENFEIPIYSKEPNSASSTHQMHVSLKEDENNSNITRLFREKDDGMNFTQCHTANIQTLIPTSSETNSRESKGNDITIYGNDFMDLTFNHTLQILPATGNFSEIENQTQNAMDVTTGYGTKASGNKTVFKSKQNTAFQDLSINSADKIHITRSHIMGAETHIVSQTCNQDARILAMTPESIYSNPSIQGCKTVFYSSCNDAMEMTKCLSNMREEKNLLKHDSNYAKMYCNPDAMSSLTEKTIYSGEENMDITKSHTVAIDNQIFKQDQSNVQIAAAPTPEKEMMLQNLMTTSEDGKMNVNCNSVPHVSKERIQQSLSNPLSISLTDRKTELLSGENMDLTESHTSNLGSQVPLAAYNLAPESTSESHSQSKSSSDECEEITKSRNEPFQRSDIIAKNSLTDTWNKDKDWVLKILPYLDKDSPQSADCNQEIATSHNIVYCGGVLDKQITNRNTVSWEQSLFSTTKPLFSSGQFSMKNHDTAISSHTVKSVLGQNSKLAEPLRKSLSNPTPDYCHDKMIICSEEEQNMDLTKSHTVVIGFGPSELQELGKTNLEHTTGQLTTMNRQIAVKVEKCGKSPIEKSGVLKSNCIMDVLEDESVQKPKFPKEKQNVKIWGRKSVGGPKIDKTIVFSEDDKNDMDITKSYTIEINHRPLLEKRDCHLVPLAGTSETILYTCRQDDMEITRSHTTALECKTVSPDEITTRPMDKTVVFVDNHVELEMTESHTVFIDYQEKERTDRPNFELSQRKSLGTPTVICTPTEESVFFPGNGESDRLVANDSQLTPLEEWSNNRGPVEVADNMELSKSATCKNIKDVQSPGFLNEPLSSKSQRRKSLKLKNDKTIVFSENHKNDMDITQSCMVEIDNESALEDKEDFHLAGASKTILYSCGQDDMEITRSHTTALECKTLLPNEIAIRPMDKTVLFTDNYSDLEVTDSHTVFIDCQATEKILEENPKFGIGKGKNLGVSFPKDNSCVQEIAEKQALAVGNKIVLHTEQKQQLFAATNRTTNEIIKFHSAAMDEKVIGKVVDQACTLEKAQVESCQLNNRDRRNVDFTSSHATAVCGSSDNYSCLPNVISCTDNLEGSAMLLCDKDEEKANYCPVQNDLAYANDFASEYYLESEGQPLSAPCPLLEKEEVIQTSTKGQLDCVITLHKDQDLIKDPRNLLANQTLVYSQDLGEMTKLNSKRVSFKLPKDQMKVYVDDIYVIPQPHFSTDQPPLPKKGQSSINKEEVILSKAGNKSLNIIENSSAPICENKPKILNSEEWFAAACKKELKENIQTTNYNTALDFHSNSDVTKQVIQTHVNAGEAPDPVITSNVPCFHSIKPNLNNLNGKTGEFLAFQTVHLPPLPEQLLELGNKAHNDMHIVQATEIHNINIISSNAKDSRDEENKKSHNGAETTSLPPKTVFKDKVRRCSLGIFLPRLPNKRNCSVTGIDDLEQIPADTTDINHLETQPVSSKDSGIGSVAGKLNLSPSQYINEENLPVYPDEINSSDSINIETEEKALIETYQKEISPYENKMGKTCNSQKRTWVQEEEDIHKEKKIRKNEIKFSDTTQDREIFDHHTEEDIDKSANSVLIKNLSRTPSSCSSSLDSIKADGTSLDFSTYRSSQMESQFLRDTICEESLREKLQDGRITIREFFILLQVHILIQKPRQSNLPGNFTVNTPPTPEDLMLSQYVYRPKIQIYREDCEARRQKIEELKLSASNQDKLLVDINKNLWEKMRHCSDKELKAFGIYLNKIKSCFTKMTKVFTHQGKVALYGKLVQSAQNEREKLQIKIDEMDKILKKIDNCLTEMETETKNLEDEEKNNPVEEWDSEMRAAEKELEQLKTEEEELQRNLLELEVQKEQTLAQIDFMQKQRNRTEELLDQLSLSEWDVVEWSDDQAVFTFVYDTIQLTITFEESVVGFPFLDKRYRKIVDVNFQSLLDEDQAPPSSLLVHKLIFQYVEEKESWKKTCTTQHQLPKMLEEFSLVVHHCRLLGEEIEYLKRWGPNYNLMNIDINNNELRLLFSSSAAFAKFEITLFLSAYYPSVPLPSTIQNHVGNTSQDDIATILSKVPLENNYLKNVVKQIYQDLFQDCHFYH

As a reminder, the Kd is the concentration at which binding is half-saturated. For the substance BUB1/BUB3 complex (from UniProt O43683), the Kd was 100 nM.
